# Results reported in publication PMC12187869, “Transport of the uremic toxin symmetric dimethylarginine (SDMA) by renal transport proteins” (Amino Acids, 2025).
# B1: OATP4C1 (Homo sapiens) (protein)
# chain: MKSAKGIENLAFVPSSPDILRRLSASPSQIEVSALSSDPQRENSQPQELQKPQEPQKSPEPSLPSAPPNVSEEKLRSLSLSEFEEGSYGWRNFHPQCLQRCNTPGGFLLHYCLLAVTQGIVVNGLVNISISTVEKRYEMKSSLTGLISSSYDISFCLLSLFVSFFGERGHKPRWLAFAAFMIGLGALVFSLPQFFSGEYKLGSLFEDTCVTTRNSTSCTSSTSSLSNYLYVFILGQLLLGAGGTPLYTLGTAFLDDSVPTHKSSLYIGTGYAMSILGPAIGYVLGGQLLTIYIDVAMGESTDVTEDDPRWLGAWWIGFLLSWIFAWSLIIPFSCFPKHLPGTAEIQAGKTSQAHQSNSNADVKFGKSIKDFPAALKNLMKNAVFMCLVLSTSSEALITTGFATFLPKFIENQFGLTSSFAATLGGAVLIPGAALGQILGGFLVSKFRMTCKNTMKFALFTSGVALTLSFVFMYAKCENEPFAGVSESYNGTGELGNLIAPCNANCNCSRSYYYPVCGDGVQYFSPCFAGCSNPVAHRKPKVYYNCSCIERKTEITSTAETFGFEAKAGKCETHCAKLPIFLCIFFIVIIFTFMAGTPITVSILRCVNHRQRSLALGIQFMVLRLLGTIPGPIIFGFTIDSTCILWDINDCGIKGACWIYDNIKMAHMLVAISVTCKVITMFFNGFAIFLYKPPPSATDVSFHKENAVVTNVLAEQDLNKIVKEG
# notes: HEK293 cells stably expressing human OATP4C1
# Substrate: CN=C(NC)NCCC[C@H](N)C(=O)O
# Experiment: [3H]SDMA uptake kinetics (Km) and efflux in HEK-OATP4C1 cells
# Format: cell-based, Homo sapiens
protein,measurement,value
B1,Km,70 µM
